Test results reported in patent US20230118307A1, “THERAPEUTIC USE OF LONG-ACTING CONJUGATE OF TRIPLE AGONIST HAVING ACTIVITIES TO ALL OF GLUCAGON/GLP-1/GIP RECEPTORS FOR LUNG DISEASE” (HANMI PHARM. CO., LTD., priority 2020, published 2023).
Positions of bridges follow the written chain, without caps; N, C: chain ends. Non-standard residues stand in square brackets, D forms with d. No end group written: not given here. *: point of attachment. Acetyl(2-(4-imidazolyl)) = O=C(Cc1c[nH]cn1)*; Aib = CC(C)(N)C(=O)O

T1: human GIP receptor (human, UniProt P48546 22-466)
T1 sequence (looked up): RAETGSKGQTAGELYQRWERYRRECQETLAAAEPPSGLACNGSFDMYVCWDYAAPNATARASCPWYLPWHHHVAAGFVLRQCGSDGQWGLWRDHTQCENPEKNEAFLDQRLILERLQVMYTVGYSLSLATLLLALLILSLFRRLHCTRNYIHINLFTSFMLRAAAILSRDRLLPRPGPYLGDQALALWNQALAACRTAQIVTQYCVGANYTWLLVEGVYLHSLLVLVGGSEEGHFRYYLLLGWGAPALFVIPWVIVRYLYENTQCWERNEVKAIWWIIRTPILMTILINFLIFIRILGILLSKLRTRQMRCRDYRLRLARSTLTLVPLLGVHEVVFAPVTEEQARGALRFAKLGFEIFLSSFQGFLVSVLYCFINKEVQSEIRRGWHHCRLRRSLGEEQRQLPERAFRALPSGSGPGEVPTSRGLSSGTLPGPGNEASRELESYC


Columns and labels:
Assay in all cases: cell-based or functional assay
[1] = biological target: human GLP-1 receptor (human, UniProt P43220 24-463)
[2] = biological target: T1, human GIP receptor
[3] = biological target: human GCG receptor (human, UniProt P47871 26-477)
Chain of human GCG receptor (P47871 26-477): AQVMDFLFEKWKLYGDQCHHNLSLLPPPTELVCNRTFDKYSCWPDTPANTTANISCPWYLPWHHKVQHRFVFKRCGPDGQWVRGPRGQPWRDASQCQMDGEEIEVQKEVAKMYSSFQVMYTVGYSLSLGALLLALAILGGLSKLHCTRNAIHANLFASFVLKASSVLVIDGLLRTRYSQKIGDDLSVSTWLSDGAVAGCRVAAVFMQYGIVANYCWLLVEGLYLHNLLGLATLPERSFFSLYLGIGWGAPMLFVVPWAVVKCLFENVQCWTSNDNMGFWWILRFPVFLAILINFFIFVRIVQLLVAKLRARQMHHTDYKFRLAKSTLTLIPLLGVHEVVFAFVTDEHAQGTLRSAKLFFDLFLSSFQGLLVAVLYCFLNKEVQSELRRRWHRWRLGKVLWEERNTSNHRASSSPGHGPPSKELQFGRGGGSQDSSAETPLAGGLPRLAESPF

| Binder | In vitro Activity Compared to Native Peptide (%) vs. GLP-1 [1] [%] | In vitro Activity Compared to Native Peptide (%) vs. GIP [2] [%] | In vitro Activity Compared to Native Peptide (%) vs. Glucagon [3] [%] |
| --- | --- | --- | --- |
| H[Aib]QGTFTSDYSKYLDEKRQKEFVQWLLDTC (bridge 16-20) [triple agonist of SEQ ID NO: 52] | 44.1 | 0.3 | 7.5 |
| {Acetyl(2-(4-imidazolyl))}-[Aib]QGTFTSDYSIAMDEIACKDFVNWLLNTK (bridge 15-19) [triple agonist of SEQ ID NO: 61] | 59.8 | 2.8 | < 0.1 |
| H[Aib]QGTFTSDVSKYLDGQAAKEFVAWLLKGC [triple agonist of SEQ ID NO: 7] | 13.7 | < 0.1 | < 0.1 |
| H[Aib]EGTFTSDYSIAMDEIHQKDFVNWLLAQC (bridge 16-20) [triple agonist of SEQ ID NO: 53] | 161 | 1.3 | 8.4 |
| H[Aib]QGTFTSDYSKYLDEKRQKEFVQWLLNTC (bridge 16-20) [triple agonist of SEQ ID NO: 51] | 14.4 | 0.1 | 2 |
| {Acetyl(2-(4-imidazolyl))}-[Aib]QGTFTSDKSKYLDERAAQDFVQWLLDGGPSSGAPPPS (ends and bridges not checked) [triple agonist of SEQ ID NO: 62] | 5.2 | < 0.1 | < 0.1 |
| H[Aib]QGTFTSDYSKYLDEKRQKEFVQWLLNTKC (bridge 16-20) [triple agonist of SEQ ID NO: 58] | 39.1 | 0.2 | 2.6 |
| {Acetyl(2-(4-imidazolyl))}-[Aib]QGTFTSDCSKYLDERAAQDFVQWLLDGGPSSGAPPPS (ends and bridges not checked) [triple agonist of SEQ ID NO: 63] | 15.3 | < 0.1 | < 0.1 |
| {Acetyl(2-(4-imidazolyl))}-[Aib]QGTFTSDYSICMDEIHQKDFVNWLLNTK (bridge 15-19) [triple agonist of SEQ ID NO: 49] | 29.8 | 3.3 | < 0.1 |
| {Acetyl(2-(4-imidazolyl))}-[Aib]QGTFTSDYSIAMDEKHCKDFVNWLLNTK (bridge 15-19) [triple agonist of SEQ ID NO: 60] | 106 | 8.2 | < 0.1 |
| Y[Aib]QGTFTSDYSKYLDECAAKEFVQWLLDHHPSSGQPPPS (bridge 16-20) [triple agonist of SEQ ID NO: 64] | 64.6 | 92.9 | 60.1 |
| H[Aib]QGTFTSDVSSYLDGQAAKEFVAWLLKGC [triple agonist of SEQ ID NO: 6] | 17 | < 0.1 | < 0.1 |
| H[Aib]QGTFTSDYSIAMDEIHQKDFVNWLLAQC (bridge 16-20) [triple agonist of SEQ ID NO: 55] | 27.1 | 2.4 | 0.7 |
| H[Aib]QGTFTSDYSKYLDEKRAKEFVQWLLDHHPSSGQPPPSC (bridge 16-20) [triple agonist of SEQ ID NO: 50] | 67.4 | 2.7 | 50.5 |
| {Acetyl(2-(4-imidazolyl))}-[Aib]QGTFTSDYSICMDEKHQKDFVNWLLNTK (bridge 15-19) [triple agonist of SEQ ID NO: 59] | 40.3 | 4 | < 0.1 |
| H[Aib]QGTFTSDVSSYLLGQQQKEFIAWLVKGGGPSSGAPPPSC (ends and bridges not checked) [triple agonist of SEQ ID NO: 5] | 42.1 | < 0.1 | < 0.1 |
| H[Aib]QGTFTSDYSKYLDEKRQKEFVNWLLAQC (bridge 16-20) [triple agonist of SEQ ID NO: 56] | 57.9 | 0.8 | 4.9 |
| H[Aib]QGTFTSDYSIAMDEIHQKDFVNWLLNTC (bridge 16-20) [triple agonist of SEQ ID NO: 57] | 11.7 | 0.3 | < 0.1 |
| HGQGTFTSDCSKYMDGQAAQDFVAWLLAGGPSSGAPPPS [triple agonist of SEQ ID NO: 45] | 6.6 | < 0.1 | < 0.1 |
| HGQGTFTSDCSKYLDGQRAQEFVAWLLAGGPSSGAPPPS [triple agonist of SEQ ID NO: 47] | 2.4 | < 0.1 | < 0.1 |
| HGQGTFTSDCSKYLDGQRAQDFVNWLLAGGPSSGAPPPS [triple agonist of SEQ ID NO: 48] | 1.5 | < 0.1 | < 0.1 |
| HGQGTFTSDCSKYLDEQHAQEFVAWLLAGGPSSGAPPPS [triple agonist of SEQ ID NO: 46] | 1.4 | < 0.1 | < 0.1 |
| H[Aib]EGTFTSDYSIAMDEIHQKDFVDWLLAEC (bridge 16-20) [triple agonist of SEQ ID NO: 54] | 30.6 | 0.1 | 1.4 |
